Measured values from US20040204561A1, “Peptide aggregates” (priority 2002, published 2004).
Primed or numbered codes have the meaning given here. Ends that are not written are not given here. bbDTPA = DTPA chelating ligand bonded through a carbon of its ethylene backbone; bbDTPA″ = DTPA chelating ligand bound through a backbone ethylene carbon

Legend:
[1] = Aggregation / gel formation behaviour in aqueous solution; type: physicochemical
Protocol: EP1272L (0.0842 g) was suspended in 2 mL water. To this were added 160 μL 1N NaOH, bringing the pH of the solution to 7.5. The volume was taken to 5 mL with addition of water and the solution gently swirled until all solids were dissolved. The chelatables were monitored by titration using xylenol orange as an indicator for free gadolinium. Following titration, 86.4 μL of 241 mM stock solution of GdCl3 was added to the solution with stirring followed by 60 μL 1N NaOH. Low mass impurities were removed from the solution by centrifugation over a 0.02 μm anapore membrane (Vecta-Spin). This was followed by resuspension in 20 mL of water and filtration over a 5 μm (Durapore, low protein binding) syringe filter frit. At concentrations greater than 0.5 mM, EP1272L became a non-flowing viscous gel.
As described in Examples 1-8, a self-assembling peptide having the sequence AEAEAKAKAEAEAKAK (SEQ ID NO: 1) was chemically modified to include a metal binding moiety (an organic chelating ligand) via a glycine linker to the N-terminus of the peptide; see EP1272L in FIG. 3. Modified self-assembling peptides having the same metal binding moiety at the N-terminus and further including acidic moieties at the C-terminus of the peptide were also made (see EP 1593L and EP1594L in FIG. 3).

[2] = Relaxivity measurements in PBS (T1, inversion recovery); type: physicochemical
From the text: First, solutions of EP 1272L (FW=2,243 Da) were concentrated and purified by centrifugation in a filter device with a nominal molecular weight limit of 300,000 Da. The formation of high molecular weight aggregates allowed EP1272L to be retained by the filter device. […] Third, SEC-LS column retention and light scattering measurements of EP1272L were consistent with a large species having a mass distribution of 4×10^6 to 13×10^6 Da, and a hydrodynamic radius in the range of 155 nm to 210 nm.
Relaxivity measurements were made in PBS. A relaxivity titration consisting of sequential additions of EP1272L (complexed to Gd(III)) to a tube containing approximately 0.6 mL of PBS was performed. Following each addition of EP1272, the sample was thoroughly mixed by manual agitation and the temperature allowed to equilibrate for 10 minutes at 37±2° C. prior to T1 determination. The longitudinal (T1) relaxation time was determined by use of the inversion recovery pulse sequence and fitting the intensity data to an exponential decay. Measurements at 20 MHz were made using a Bruker Minispec PC 120/125/Vts nuclear magnetic resonance process analyzer. The temperature was regulated with a Haake D8-GH circulating bath at 37±2° C. Measurements at 64.5 MHz were made using a Varian XL300 adjusted to a field strength of 1.5 T with a broad band variable temperature probe tuned to 64.5 MHz. The relaxivity of EP1272 at 0.5 T and 1.5 T were 24.9 mM^−1s^−1 and 21.0 mM^−1s^−1 respectively. The relaxivity of EP1593 at 0.5 T was assessed in a similar manner and was 19.9 mM^−1s^−1. The relaxivity of EP1594 was assessed in a similar manner at 0.5 T and was 22.0 mM^−1s^−1.

[3] = biological target: streptavidin magnetic beads (Streptomyces avidinii, UniProt P22629); assay: Avidin affinity assay: capture by streptavidin magnetic beads, quantified by gadolinium ICP; type: binding; conditions: capture by streptavidin-coated beads, FIG. 8
Chain of streptavidin magnetic beads (P22629 25-183): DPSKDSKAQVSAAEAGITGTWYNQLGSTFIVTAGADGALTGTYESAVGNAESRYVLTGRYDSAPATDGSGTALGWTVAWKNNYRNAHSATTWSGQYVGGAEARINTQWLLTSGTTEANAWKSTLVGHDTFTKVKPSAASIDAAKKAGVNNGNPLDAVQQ
Protocol: Two self-assembling peptides comprising target binding moieties were prepared (FIG. 7). EP1595 contained a C-terminal biotin target binding moiety; EP 1596 contained a C-terminal aromatic target binding moiety (phenylundecane).
EP1272L aggregates were targeted to avidin by incorporation of a biotinylated peptide (e.g., an assembling peptide containing a target binding moiety (EP1595)) into the aggregates. To 70 μL of a 1.54 mM stock solution of EP1272L was added varying amounts of EP1595. The pH was then reduced to 1.5 by addition of 1N HCl to induce mixing of the peptides. The solution was neutralized by addition of 1N NaOH and the volume brought to 500 μL with addition of water. Aggregates containing 20% biotinylated peptide (5:1 ratio of EP1272 to EP1595), 4% biotinylated-peptide (25:1 ratio), and 0.5% biotinylated peptide (200:1) were prepared.
EP1272L aggregates containing the phenylundecane substituted peptide, EP1596, in a 10:1 ratio were prepared as described above.
The three EP1595/EP1272 formulations, one EP1596/EP1272 formulation, and an EP1272 formulation were assayed for affinity to streptavidin magnetic beads. Each sample was diluted so as to maintain a constant ratio of biotinylated peptide and streptavidin binding sites in the assay. Solutions without biotin were treated as though they contained 0.5% EP1595. […] The extent of capture was quantified by gadolinium ICP.

| Substance | aggregation behaviour (macroscopic membrane formation) [1] | relaxivity ([2]; 0.5 T (20 MHz), 37±2° C.) [mM⁻¹ s⁻¹] | also measured |
| --- | --- | --- | --- |
| AEAEAKAKAEAEAKAK (Targeted aggregate peptide) [reference compound] | tended to form macroscopic membranes |  |  |
| EP1272: EP1272L complexed to Gd(III) (GAEAEAKAKAEAEAKAK) |  | 24.9 | relaxivity ([2]; 1.5 T (64.5 MHz), 37±2° C.): 21.0 mM⁻¹ s⁻¹ |
| EP1272L: self-assembling peptide AEAEAKAKAEAEAKAK (SEQ ID NO: 1) with bbDTPA chelating ligand via a glycine linker at the N-terminus (bbDTPA-GAEAEAKAKAEAEAKAK) | tended to aggregate, but did not form macroscopic membranes |  | concentration above which a non-flowing viscous gel forms ([1]; aqueous solution after complexing with Gd(III)): greater than 0.5 mM; affinity for streptavidin beads [3]: substantially less affinity for streptavidin beads; relaxivity ([2]; 0.47 T): 25 mM⁻¹ s⁻¹; relaxivity ([2]; 1.5 T (64.5 MHz), 37±2° C.): 21 mM⁻¹ s⁻¹ |
| EP1593: EP1593L complexed to Gd(III) (GAEAEAKAKAEAEAKAK) |  | 19.9 |  |
| EP1593L: self-assembling peptide having a covalently attached metal binding moiety (bbDTPA) and an acidic group at the C-terminus ({bbDTPA″}-GAEAEAKAKAEAEAKAK; also: acidic group at C-terminus, not given here) | tended to aggregate, but did not form macroscopic membranes |  |  |
| EP1594: EP1594L complexed to Gd(III) (GAEAEAKAKAEAEAKAK) |  | 22.0 |  |
| EP1594L: self-assembling peptide having a covalently attached metal binding moiety (bbDTPA) and an acidic group at the C-terminus ({bbDTPA″}-GAEAEAKAKAEAEAKAK; also: acidic group at C-terminus, not given here) | tended to aggregate, but did not form macroscopic membranes |  |  |
